{"source": "paper PMC10786891", "about": "“Massively parallel profiling of RNA-targeting CRISPR-Cas13d”", "data": [{"molecular_target": "T1, EsCas13d, nuclease-dead (Eubacterium siraeum, UniProt B0MS50, R295A;H300A;R849A;H854A)", "T1 sequence": "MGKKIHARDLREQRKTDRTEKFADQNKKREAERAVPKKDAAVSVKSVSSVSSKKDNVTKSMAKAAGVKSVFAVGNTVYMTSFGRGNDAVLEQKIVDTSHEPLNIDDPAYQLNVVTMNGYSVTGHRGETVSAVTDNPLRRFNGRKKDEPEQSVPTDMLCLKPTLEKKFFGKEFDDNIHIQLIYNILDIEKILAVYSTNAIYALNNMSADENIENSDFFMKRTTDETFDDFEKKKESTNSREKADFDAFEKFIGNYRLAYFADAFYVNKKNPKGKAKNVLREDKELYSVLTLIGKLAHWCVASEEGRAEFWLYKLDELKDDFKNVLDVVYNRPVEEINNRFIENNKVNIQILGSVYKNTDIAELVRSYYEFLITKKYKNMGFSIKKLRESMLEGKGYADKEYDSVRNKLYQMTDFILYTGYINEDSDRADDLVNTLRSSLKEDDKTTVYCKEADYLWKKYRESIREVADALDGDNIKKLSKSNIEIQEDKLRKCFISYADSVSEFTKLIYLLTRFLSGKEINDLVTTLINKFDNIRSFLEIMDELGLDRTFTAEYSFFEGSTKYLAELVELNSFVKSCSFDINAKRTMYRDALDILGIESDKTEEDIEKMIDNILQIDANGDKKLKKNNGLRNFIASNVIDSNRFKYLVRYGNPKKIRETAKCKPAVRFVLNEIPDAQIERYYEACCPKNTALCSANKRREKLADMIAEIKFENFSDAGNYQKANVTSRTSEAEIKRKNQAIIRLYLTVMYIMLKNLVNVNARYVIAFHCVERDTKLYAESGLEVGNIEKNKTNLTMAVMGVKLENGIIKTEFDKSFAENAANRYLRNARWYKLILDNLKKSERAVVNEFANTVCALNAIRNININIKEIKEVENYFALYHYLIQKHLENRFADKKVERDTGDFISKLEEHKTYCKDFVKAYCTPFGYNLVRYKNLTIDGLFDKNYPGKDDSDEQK", "experiment": "crRNA (strand 1, pre-loaded); Mg2+; 40 mM Tris-HCl pH 7.5, 150 mM NaCl, 6 mM MgCl2, 1 mM DTT, 0.1% Tween-20, 0.2 mg/ml BSA; 25 C; 10 min per concentration, then washed", "settings": "tags: His6-TwinStrep-SUMO cleaved; N-terminal SNAP kept (SNAP-Surface 488); label: 3' end held by stalled T7 RNA polymerase", "units": {"Kd": "nM"}, "values": [{"binder": "target 1 C2G (mixed) RNA 1: CACCCGUGCAAAAAUGCAGGGGUCUAAAACUGAGCGGAUAACCUCUCUAUGG RNA 2: GGGAAUGGAUCCACAUCUACGAAUUCGUACCAUAGAGAGGUUAUCCGCUGACCGAGAUCGGAAGAGCACACGU", "Kd": "8.3 ± 0.6"}, {"binder": "target 1 insU 3' of 12,insC 3' of 1 (mixed) RNA 1: CACCCGUGCAAAAAUGCAGGGGUCUAAAACUGAGCGGAUAACCUCUCUAUGG RNA 2: GGGAAUGGAUCCACAUCUACGAAUUCGUACCAUAGAGAGGUUUAUCCGCUCACCCGAGAUCGGAAGAGCACACGU", "Kd": "8.9 ± 0.7"}, {"binder": "target 1 insU 3' of 20,insG 3' of 9 (mixed) RNA 1: CACCCGUGCAAAAAUGCAGGGGUCUAAAACUGAGCGGAUAACCUCUCUAUGG RNA 2: GGGAAUGGAUCCACAUCUACGAAUUCGUACCAUUAGAGAGGUUAGUCCGCUCACCGAGAUCGGAAGAGCACACGU", "Kd": "29 ± 4"}, {"binder": "target 2 MT 5'PFS CUA 3'PFS UCU (mixed) RNA 1: CACCCGUGCAAAAUUGCAGGGGUCUAAAACCUUCUCCAAAUUGUUUCAUCCU RNA 2: GGGAAUGGAUCCACAUCUACGAAUUCCUAAGGAUGAAACAAUUUGGAGAAGUCUAGAUCGGAAGAGCACACGU", "Kd": "3.6 ± 0.4"}, {"binder": "target 2 MT 5'PFS CUC 3'PFS CCA (mixed) RNA 1: CACCCGUGCAAAAUUGCAGGGGUCUAAAACCUUCUCCAAAUUGUUUCAUCCU RNA 2: GGGAAUGGAUCCACAUCUACGAAUUCCUCAGGAUGAAACAAUUUGGAGAAGCCAAGAUCGGAAGAGCACACGU", "Kd": "4.8 ± 0.7"}, {"binder": "target 2 MT 5'PFS GCC 3'PFS UAU (mixed) RNA 1: CACCCGUGCAAAAUUGCAGGGGUCUAAAACCUUCUCCAAAUUGUUUCAUCCU RNA 2: GGGAAUGGAUCCACAUCUACGAAUUCGCCAGGAUGAAACAAUUUGGAGAAGUAUAGAUCGGAAGAGCACACGU", "Kd": "22 ± 4"}, {"binder": "target 2 MT 5'PFS UGC 3'PFS UUC (mixed) RNA 1: CACCCGUGCAAAAUUGCAGGGGUCUAAAACCUUCUCCAAAUUGUUUCAUCCU RNA 2: GGGAAUGGAUCCACAUCUACGAAUUCUGCAGGAUGAAACAAUUUGGAGAAGUUCAGAUCGGAAGAGCACACGU", "Kd": "~40"}, {"binder": "target 2 MT 5'PFS AAA 3'PFS CAG (mixed) RNA 1: CACCCGUGCAAAAUUGCAGGGGUCUAAAACCUUCUCCAAAUUGUUUCAUCCU RNA 2: GGGAAUGGAUCCACAUCUACGAAUUCAAAAGGAUGAAACAAUUUGGAGAAGCAGAGAUCGGAAGAGCACACGU", "Kd": "3.8 ± 0.6"}, {"binder": "target 2 MT 5'PFS UGC 3'PFS UUA (mixed) RNA 1: CACCCGUGCAAAAUUGCAGGGGUCUAAAACCUUCUCCAAAUUGUUUCAUCCU RNA 2: GGGAAUGGAUCCACAUCUACGAAUUCUGCAGGAUGAAACAAUUUGGAGAAGUUAAGAUCGGAAGAGCACACGU", "Kd": "~27"}, {"binder": "target 2 MT 5'PFS AGG 3'PFS CAU (mixed) RNA 1: CACCCGUGCAAAAUUGCAGGGGUCUAAAACCUUCUCCAAAUUGUUUCAUCCU RNA 2: GGGAAUGGAUCCACAUCUACGAAUUCAGGAGGAUGAAACAAUUUGGAGAAGCAUAGAUCGGAAGAGCACACGU", "Kd": "4.6 ± 0.6"}, {"binder": "target 2 MT 5'PFS UGG 3'PFS ACG (mixed) RNA 1: CACCCGUGCAAAAUUGCAGGGGUCUAAAACCUUCUCCAAAUUGUUUCAUCCU RNA 2: GGGAAUGGAUCCACAUCUACGAAUUCUGGAGGAUGAAACAAUUUGGAGAAGACGAGAUCGGAAGAGCACACGU", "Kd": "5.5 ± 0.4"}, {"binder": "target 2 MT 5'PFS ACA 3'PFS AUU (mixed) RNA 1: CACCCGUGCAAAAUUGCAGGGGUCUAAAACCUUCUCCAAAUUGUUUCAUCCU RNA 2: GGGAAUGGAUCCACAUCUACGAAUUCACAAGGAUGAAACAAUUUGGAGAAGAUUAGAUCGGAAGAGCACACGU", "Kd": "5.5 ± 0.8"}, {"binder": "target 2 MT 5'PFS GCC 3'PFS UAG (mixed) RNA 1: CACCCGUGCAAAAUUGCAGGGGUCUAAAACCUUCUCCAAAUUGUUUCAUCCU RNA 2: GGGAAUGGAUCCACAUCUACGAAUUCGCCAGGAUGAAACAAUUUGGAGAAGUAGAGAUCGGAAGAGCACACGU", "Kd": "12 ± 3.4"}, {"binder": "target 2 MT 5'PFS CUU 3'PFS UUC (mixed) RNA 1: CACCCGUGCAAAAUUGCAGGGGUCUAAAACCUUCUCCAAAUUGUUUCAUCCU RNA 2: GGGAAUGGAUCCACAUCUACGAAUUCCUUAGGAUGAAACAAUUUGGAGAAGUUCAGAUCGGAAGAGCACACGU", "Kd": "9.2 ± 2"}, {"binder": "target 2 MT 5'PFS CUC 3'PFS CCU (mixed) RNA 1: CACCCGUGCAAAAUUGCAGGGGUCUAAAACCUUCUCCAAAUUGUUUCAUCCU RNA 2: GGGAAUGGAUCCACAUCUACGAAUUCCUCAGGAUGAAACAAUUUGGAGAAGCCUAGAUCGGAAGAGCACACGU", "Kd": "23 ± 7"}, {"binder": "target 2 MT 5'PFS UGG 3'PFS ACU (mixed) RNA 1: CACCCGUGCAAAAUUGCAGGGGUCUAAAACCUUCUCCAAAUUGUUUCAUCCU RNA 2: GGGAAUGGAUCCACAUCUACGAAUUCUGGAGGAUGAAACAAUUUGGAGAAGACUAGAUCGGAAGAGCACACGU", "Kd": "9.5 ± 1.3"}, {"binder": "target 2 MT 5'PFS UUU 3'PFS UGC (mixed) RNA 1: CACCCGUGCAAAAUUGCAGGGGUCUAAAACCUUCUCCAAAUUGUUUCAUCCU RNA 2: GGGAAUGGAUCCACAUCUACGAAUUCUUUAGGAUGAAACAAUUUGGAGAAGUGCAGAUCGGAAGAGCACACGU", "Kd": "5.2 ± 0.4"}, {"binder": "target 2 MT 5'PFS AUG 3'PFS UUC (mixed) RNA 1: CACCCGUGCAAAAUUGCAGGGGUCUAAAACCUUCUCCAAAUUGUUUCAUCCU RNA 2: GGGAAUGGAUCCACAUCUACGAAUUCAUGAGGAUGAAACAAUUUGGAGAAGUUCAGAUCGGAAGAGCACACGU", "Kd": "21 ± 4"}, {"binder": "target 2 MT 5'PFS UGG 3'PFS ACC (mixed) RNA 1: CACCCGUGCAAAAUUGCAGGGGUCUAAAACCUUCUCCAAAUUGUUUCAUCCU RNA 2: GGGAAUGGAUCCACAUCUACGAAUUCUGGAGGAUGAAACAAUUUGGAGAAGACCAGAUCGGAAGAGCACACGU", "Kd": "27 ± 6"}, {"binder": "target 2 MT 5'PFS CUC 3'PFS UUG (mixed) RNA 1: CACCCGUGCAAAAUUGCAGGGGUCUAAAACCUUCUCCAAAUUGUUUCAUCCU RNA 2: GGGAAUGGAUCCACAUCUACGAAUUCCUCAGGAUGAAACAAUUUGGAGAAGUUGAGAUCGGAAGAGCACACGU", "Kd": "3.2 ± 0.5"}, {"binder": "target 2 MT 5'PFS CUC 3'PFS CCG (mixed) RNA 1: CACCCGUGCAAAAUUGCAGGGGUCUAAAACCUUCUCCAAAUUGUUUCAUCCU RNA 2: GGGAAUGGAUCCACAUCUACGAAUUCCUCAGGAUGAAACAAUUUGGAGAAGCCGAGAUCGGAAGAGCACACGU", "Kd": "2.21 ± 0.24"}, {"binder": "target 2 MT 5'PFS CUU 3'PFS UUU (mixed) RNA 1: CACCCGUGCAAAAUUGCAGGGGUCUAAAACCUUCUCCAAAUUGUUUCAUCCU RNA 2: GGGAAUGGAUCCACAUCUACGAAUUCCUUAGGAUGAAACAAUUUGGAGAAGUUUAGAUCGGAAGAGCACACGU", "Kd": "8.4 ± 0.7"}, {"binder": "target 2 MT 5'PFS CUU 3'PFS UUA (mixed) RNA 1: CACCCGUGCAAAAUUGCAGGGGUCUAAAACCUUCUCCAAAUUGUUUCAUCCU RNA 2: GGGAAUGGAUCCACAUCUACGAAUUCCUUAGGAUGAAACAAUUUGGAGAAGUUAAGAUCGGAAGAGCACACGU", "Kd": "5 ± 0.5"}, {"binder": "target 2 MT 5'PFS GCC 3'PFS UAA (mixed) RNA 1: CACCCGUGCAAAAUUGCAGGGGUCUAAAACCUUCUCCAAAUUGUUUCAUCCU RNA 2: GGGAAUGGAUCCACAUCUACGAAUUCGCCAGGAUGAAACAAUUUGGAGAAGUAAAGAUCGGAAGAGCACACGU", "Kd": "10.9 ± 2.7"}, {"binder": "target 2 MT 5'PFS UGG 3'PFS ACA (mixed) RNA 1: CACCCGUGCAAAAUUGCAGGGGUCUAAAACCUUCUCCAAAUUGUUUCAUCCU RNA 2: GGGAAUGGAUCCACAUCUACGAAUUCUGGAGGAUGAAACAAUUUGGAGAAGACAAGAUCGGAAGAGCACACGU", "Kd": "6 ± 0.7"}, {"binder": "target 2 MT 5'PFS CUU 3'PFS UUG (mixed) RNA 1: CACCCGUGCAAAAUUGCAGGGGUCUAAAACCUUCUCCAAAUUGUUUCAUCCU RNA 2: GGGAAUGGAUCCACAUCUACGAAUUCCUUAGGAUGAAACAAUUUGGAGAAGUUGAGAUCGGAAGAGCACACGU", "Kd": "6 ± 0.7"}, {"binder": "target 2 MT 5'PFS GCC 3'PFS UAC (mixed) RNA 1: CACCCGUGCAAAAUUGCAGGGGUCUAAAACCUUCUCCAAAUUGUUUCAUCCU RNA 2: GGGAAUGGAUCCACAUCUACGAAUUCGCCAGGAUGAAACAAUUUGGAGAAGUACAGAUCGGAAGAGCACACGU", "Kd": "20 ± 7"}, {"binder": "target 2 MT 5'PFS GGA 3'PFS UGC (mixed) RNA 1: CACCCGUGCAAAAUUGCAGGGGUCUAAAACCUUCUCCAAAUUGUUUCAUCCU RNA 2: GGGAAUGGAUCCACAUCUACGAAUUCGGAAGGAUGAAACAAUUUGGAGAAGUGCAGAUCGGAAGAGCACACGU", "Kd": "10.5 ± 0.9"}]}]}
